Measurements reported in US20050215478A1, “Amino acid sequences capable of facilitating penetration across a biological barrier” (priority 2002, published 2005).
Values joined by “and” are separate entries in the source; they are usually repeats but may differ in a detail not shown here. Equal entries are not always repeated.

How the values were obtained:
[1] = Relative potency of penetrating peptides as tested in mice (Example 3); format: in vivo; details: IBW-002 = 100
Excerpt: Relative Potency of Penetrating Peptides as Tested in Mice.

[2] = Formulation development: recovery of ^125I-IBW-002 after intestine loop injection, urine included (Example 2); format: in vivo, mouse; details: intestinal loop; for recovered cpm/mouse: blood 60′, organs and urine; for blood 15′, total cpm in the blood / blood 30′, total cpm in the blood / blood 60′, total cpm in the blood / blood 5′, total cpm in the blood / blood 10′, total cpm in the blood / blood 20′, total cpm in the blood: calculated from 50 μl sample assuming 2 ml blood
Protocol: The mice were anesthetized by i.p. injection of 0.05 ml of a mixture of 0.15 ml xylazine+0.85 ml of ketamin. A 2 cm long incision was made along the center of the abdomen, through the skin and abdominal wall. An intestine loop was gently pulled out through the incision and placed on wet gauze beside the animal. The loop remained intact through the entire procedure and was kept wet during the whole time. The tested compound was injected into the loop, 0.2 ml/ mouse, containing around 200,000 cpm, using a 26G needle. […] The animals were subsequently sacrificed. The following organs were removed: epididymal fat, kidneys, liver, lungs and brain. Radioactivity in each organ and in blood samples was counted. A 5 μl sample of the injected solution was counted to determine the total injected cpm per mouse.
To reach an improved formulation, a number of compounds were tested in experiments similar to that described in Example 1, with the following change: urine was collected and the measured radioactivity was added to that of the recovered tissues. […]
The total radioactive labeling injected per mouse was 195,900 cpm. Total cpm in the blood was calculated based on the 50 μl blood sample drawn out at different time points post injection, in the assumption that total blood volume of each mouse is 2 ml.
The total radioactive labeling injected per mouse was 143,000 cpm. Total cpm in the blood was calculated based on the 50 μl blood sample drawn out at different time points post injection, in the assumption that total blood volume of each mouse is 2 ml.

[3] = Table 5 formulation (PE 6,200), 125,320 cpm injected per mouse, individual mice, listed as 125I-IBW-002
[4] = Table 5 formulation (PE 6,200), 125,320 cpm injected per mouse, mean of 2 mice
[5] = Table 8 formulation (PE 6,200 + Taurodeoxycholic acid), 195,900 cpm injected per mouse, individual mice, listed as 125I-IBW-002
[6] = Table 8 formulation (PE 6,200 + Taurodeoxycholic acid), 195,900 cpm injected per mouse, mean of 4 mice
[7] = Table 11 formulation (Pluronic F-68 + Taurodeoxycholic acid), 143,000 cpm injected per mouse, individual mice, listed as 125I-IBW-002
[8] = Table 11 formulation (Pluronic F-68 + Taurodeoxycholic acid), 143,000 cpm injected per mouse, mean of 4 mice

Substance: Ac-NYYDITLALAGICQSARLVQQLAGGGKGGK-NH2 (Ac-NYYDITLALAGICQSARLVQQLAGGGKGGK-NH2; also: 125I label) [IBW-002, ^125I-labeled using the Bolton Hunter Reagent for in vivo tests]
- Relative potency (%) [1]: 100%
- recovered cpm/mouse [2, 3]: 35,759 cpm and 40,067 cpm
- recovered cpm/mouse [2, 4]: 37,913 cpm
- blood 15′, total cpm in the blood [2, 3]: 19,920 cpm and 19,560 cpm
- blood 30′, total cpm in the blood [2, 3]: 18,800 cpm and 15,880 cpm
- blood 60′, total cpm in the blood [2, 3]: 14,560 cpm and 10,960 cpm
- blood 15′, total cpm in the blood [2, 4]: 19,740 cpm
- blood 30′, total cpm in the blood [2, 4]: 17,340 cpm
- blood 60′, total cpm in the blood [2, 4]: 12,760 cpm
- blood/injected cpm (%), 15′ [2, 3]: 15.90% and 15.61%
- blood/injected cpm (%), 30′ [2, 3]: 15.00% and 12.67%
- blood/injected cpm (%), 60′ [2, 3]: 11.62% and 8.75%
- brain, cpm recovered [2, 3]: 95 cpm and 110 cpm
- epididimal fat, cpm recovered [2, 3]: 321 cpm and 288 cpm
- kidney, cpm recovered [2, 3]: 2,564 cpm and 3,799 cpm
- liver, cpm recovered [2, 3]: 2,994 cpm and 2,786 cpm
- lungs, cpm recovered [2, 3]: 476 cpm and 377 cpm
- recovered cpm/injected cpm (%) [2, 3]: 28.53% and 31.97%
- urine, cpm recovered [2, 3]: 14,749 cpm and 21,747 cpm
- blood/injected cpm (%), 15′ [2, 4]: 15.75%
- blood/injected cpm (%), 30′ [2, 4]: 13.84%
- blood/injected cpm (%), 60′ [2, 4]: 10.18%
- brain, cpm recovered [2, 4]: 103 cpm
- epididimal fat, cpm recovered [2, 4]: 305 cpm
- kidney, cpm recovered [2, 4]: 3,182 cpm
- liver, cpm recovered [2, 4]: 2,890 cpm
- lungs, cpm recovered [2, 4]: 427 cpm
- recovered cpm/injected cpm (%) [2, 4]: 30.25%
- urine, cpm recovered [2, 4]: 18,248 cpm
- recovered cpm/mouse [2, 5]: 93,914 cpm and 68,380 cpm and 89,969 cpm and 90,520 cpm
- recovered cpm/mouse [2, 6]: 85,446 cpm
- blood 15′, total cpm in the blood [2, 5]: 40,600 cpm and 39,440 cpm and 51,920 cpm and 36,200 cpm
- blood 30′, total cpm in the blood [2, 5]: 37,440 cpm and 31,720 cpm and 48,440 cpm and 34,720 cpm
- blood 60′, total cpm in the blood [2, 5]: 33,880 cpm and 23,080 cpm and 40,840 cpm and 30,200 cpm
- blood 15′, total cpm in the blood [2, 6]: 42,040 cpm
- blood 30′, total cpm in the blood [2, 6]: 38,080 cpm
- blood 60′, total cpm in the blood [2, 6]: 32,000 cpm
- blood/injected cpm (%), 15′ [2, 5]: 20.72% and 20.13% and 26.50% and 18.48%
- blood/injected cpm (%), 30′ [2, 5]: 19.11% and 16.19% and 24.73% and 17.72%
- blood/injected cpm (%), 60′ [2, 5]: 17.29% and 11.78% and 20.85% and 15.42%
- brain, cpm recovered [2, 5]: 206 cpm and 176 cpm and 284 cpm and 173 cpm
- epididimal fat, cpm recovered [2, 5]: 1,081 cpm and 805 cpm and 903 cpm and 846 cpm
- kidney, cpm recovered [2, 5]: 9,513 cpm and 7,878 cpm and 10,661 cpm and 8,929 cpm
- liver, cpm recovered [2, 5]: 8,194 cpm and 5,154 cpm and 9,615 cpm and 8,708 cpm
- lungs, cpm recovered [2, 5]: 1,048 cpm and 636 cpm and 1,221 cpm and 1,303 cpm
- recovered cpm/injected cpm (%) [2, 5]: 47.94% and 34.91% and 45.42% and 46.21%
- urine, cpm recovered [2, 5]: 39,992 cpm and 30,651 cpm and 25,445 cpm and 40,361 cpm
- blood/injected cpm (%), 15′ [2, 6]: 21.46%
- blood/injected cpm (%), 30′ [2, 6]: 19.44%
- blood/injected cpm (%), 60′ [2, 6]: 16.33%
- brain, cpm recovered [2, 6]: 210 cpm
- epididimal fat, cpm recovered [2, 6]: 909 cpm
- kidney, cpm recovered [2, 6]: 9,245 cpm
- liver, cpm recovered [2, 6]: 7,918 cpm
- lungs, cpm recovered [2, 6]: 1,052 cpm
- recovered cpm/injected cpm (%) [2, 6]: 43.62%
- urine, cpm recovered [2, 6]: 34,112 cpm
- recovered cpm/mouse [2, 7]: 78,079 cpm and 67,291 cpm and 64,828 cpm and 79,362 cpm
- recovered cpm/mouse [2, 8]: 72,390 cpm
- blood 5′, total cpm in the blood [2, 7]: 29,400 cpm and 29,120 cpm and 34,240 cpm and 32,920 cpm
- blood 10′, total cpm in the blood [2, 7]: 26,680 cpm and 32,320 cpm and 28,200 cpm and 27,760 cpm
- blood 20′, total cpm in the blood [2, 7]: 20,280 cpm and 30,960 cpm and 27,240 cpm and 21,800 cpm
- blood 60′, total cpm in the blood [2, 7]: 11,880 cpm and 22,840 cpm and 16,280 cpm and 14,440 cpm
- blood 5′, total cpm in the blood [2, 8]: 31,420 cpm
- blood 10′, total cpm in the blood [2, 8]: 28,740 cpm
- blood 20′, total cpm in the blood [2, 8]: 25,070 cpm
- blood 60′, total cpm in the blood [2, 8]: 16,360 cpm
- blood/injected cpm (%), 5′ [2, 7]: 20.56% and 20.36% and 23.94% and 23.02%
- blood/injected cpm (%), 10′ [2, 7]: 18.66% and 22.60% and 19.72% and 19.41%
- blood/injected cpm (%), 20′ [2, 7]: 14.18% and 21.65% and 19.05% and 15.24%
- blood/injected cpm (%), 60′ [2, 7]: 8.31% and 15.97% and 11.38% and 10.10%
- brain, cpm recovered [2, 7]: 76 cpm and 106 cpm and 94 cpm and 74 cpm
- epididimal fat, cpm recovered [2, 7]: 375 cpm and 591 cpm and 462 cpm and 465 cpm
- kidney, cpm recovered [2, 7]: 2,397 cpm and 4,407 cpm and 5,018 cpm and 5,772 cpm
- liver, cpm recovered [2, 7]: 3,516 cpm and 6,546 cpm and 6,561 cpm and 4,807 cpm
- lungs, cpm recovered [2, 7]: 393 cpm and 643 cpm and 582 cpm and 533 cpm
- recovered cpm/injected cpm (%) [2, 7]: 54.60% and 47.06% and 45.33% and 55.50%
- urine, cpm recovered [2, 7]: 59,442 cpm and 32,158 cpm and 35,831 cpm and 53,271 cpm
- blood/injected cpm (%), 5′ [2, 8]: 21.97%
- blood/injected cpm (%), 10′ [2, 8]: 20.10%
- blood/injected cpm (%), 20′ [2, 8]: 17.53%
- blood/injected cpm (%), 60′ [2, 8]: 11.44%
- brain, cpm recovered [2, 8]: 88 cpm
- epididimal fat, cpm recovered [2, 8]: 473 cpm
- kidney, cpm recovered [2, 8]: 4,399 cpm
- liver, cpm recovered [2, 8]: 5,358 cpm
- lungs, cpm recovered [2, 8]: 538 cpm
- recovered cpm/injected cpm (%) [2, 8]: 50.62%
- urine, cpm recovered [2, 8]: 45,176 cpm
